# Results as given in article PMC5433087.
# Molecular target: HER3 (Human, His-tagged; Sino Biological) (human) (UniProt P21860)
# Test: SPR
# Chain of UniProt P21860 (P21860 20-643): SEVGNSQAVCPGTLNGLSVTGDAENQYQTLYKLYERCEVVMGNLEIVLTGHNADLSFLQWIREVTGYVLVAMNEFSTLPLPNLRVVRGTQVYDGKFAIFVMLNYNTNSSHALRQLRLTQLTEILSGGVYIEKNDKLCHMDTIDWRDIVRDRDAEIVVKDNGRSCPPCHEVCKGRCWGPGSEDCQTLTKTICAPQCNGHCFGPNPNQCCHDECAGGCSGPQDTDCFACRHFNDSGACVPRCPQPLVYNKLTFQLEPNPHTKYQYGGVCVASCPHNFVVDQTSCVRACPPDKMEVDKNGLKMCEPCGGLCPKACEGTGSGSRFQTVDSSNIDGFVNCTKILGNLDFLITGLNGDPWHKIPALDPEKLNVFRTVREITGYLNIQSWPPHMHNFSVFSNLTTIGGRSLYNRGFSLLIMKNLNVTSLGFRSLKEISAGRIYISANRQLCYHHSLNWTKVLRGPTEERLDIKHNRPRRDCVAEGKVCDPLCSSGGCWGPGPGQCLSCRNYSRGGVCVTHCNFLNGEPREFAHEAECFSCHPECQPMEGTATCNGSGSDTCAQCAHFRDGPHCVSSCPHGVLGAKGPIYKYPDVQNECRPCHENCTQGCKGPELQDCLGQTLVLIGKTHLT
row,Kd [nM],Substance
1,0.327,bivalent HER3 affibody (two Z_(05413) domains joined by a spacer of three repeat units) (designed binder)
2,0.316,monovalent HER3 affibody (Z_(05413) affibody) (designed binder)
3,2.34,trivalent HER3 affibody (three Z_(05413) domains joined by spacers of three repeat units) (designed binder)
